For one substance, Kd and EC50 results are on record in publication PMC3782484.

Test [1] concerns the target 5pGST, recombinant FbsA fragment 5p (one repeat) fused to GST (Streptococcus agalactiae strain COH1). Put plainly: SPR; BIAcore X; 5pGST or 6pGST (500 nM) captured on immobilized goat anti-GST antibody, GST alone in the reference cell; human Fng flowed at 2.92 nM to 750 nM, 20 µl/min; equilibrium analysis. On the technique in general: In SPR one partner is held on a chip, and binding of the other changes the refractive index at the surface.

For test [2], the target named is 6pGST, recombinant FbsA fragment 6p (five repeats) fused to GST (Streptococcus agalactiae strain COH1). Described as above.
The target in test [3] is 5pGST, recombinant FbsA fragment 5p (one repeat) fused to GST (Streptococcus agalactiae strain COH1). Put plainly: ELISA; 5pGST or 6pGST (500 ng/well) coated overnight at 4°C in 0.1 M carbonate buffer, blocked with 2% BSA, increasing amounts of human Fng; detected with mouse anti-human Fng IgG and peroxidase-conjugated rabbit anti-mouse IgG. Background: In an ELISA, binding on a coated surface is turned into a signal by an enzyme label.

Test [4] has as its target 6pGST, recombinant FbsA fragment 6p (five repeats) fused to GST (Streptococcus agalactiae strain COH1). The description is as above.

Usually Kd stands for the constant that tells how readily two partners part at equilibrium. What is called EC50 is the concentration giving half of the maximal effect. On to “Human fibrinogen (from UniProt P02671 36-866; P02675 45-491; P02679 27-453) (complex)”, for which the Kd in test [1] was 27.5 nM; in test [2] it was 23 nM. Also, the EC50 in test [3] worked out at 31.2 nM; in test [4], 63 nM.
